Experimental findings from PMC8369199 are described below.

The target of assay [1] is MMP-9 cleaved TRZ-Fc4 (human). As to the kind of experiment: BLI; antibody variant on anti-human Fab-CH1 (Fab2G) sensors; FcγRI 6.25, 12.5, 25, 50 nM, then dissociation in kinetics buffer; 1:1 Langmuir model.
Assay [2] concerns the target trastuzumab (human). The description is as above.
The target of assay [3] is human complement C1q (human) (UniProt P02745). As to the kind of experiment: BLI.
Assay [4] concerns the target FcγRIIIa V158 (high-affinity variant of FcγRIIIa) on engineered ADCC reporter effector cells.

The Kd is a measure of binding affinity in units of concentration. A high value points to weaker binding.

His-tagged human Fc gamma RI (CD64), sequence (P12314 16-292): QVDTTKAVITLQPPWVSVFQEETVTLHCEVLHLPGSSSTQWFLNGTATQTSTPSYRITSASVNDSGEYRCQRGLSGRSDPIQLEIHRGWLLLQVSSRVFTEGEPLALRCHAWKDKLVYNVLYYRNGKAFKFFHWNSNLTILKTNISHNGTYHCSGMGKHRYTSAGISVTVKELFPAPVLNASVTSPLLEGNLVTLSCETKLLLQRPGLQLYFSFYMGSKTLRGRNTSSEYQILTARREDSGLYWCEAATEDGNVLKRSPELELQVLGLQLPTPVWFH
human complement C1q (human), sequence (P02745 23-245, chain 1 of 3): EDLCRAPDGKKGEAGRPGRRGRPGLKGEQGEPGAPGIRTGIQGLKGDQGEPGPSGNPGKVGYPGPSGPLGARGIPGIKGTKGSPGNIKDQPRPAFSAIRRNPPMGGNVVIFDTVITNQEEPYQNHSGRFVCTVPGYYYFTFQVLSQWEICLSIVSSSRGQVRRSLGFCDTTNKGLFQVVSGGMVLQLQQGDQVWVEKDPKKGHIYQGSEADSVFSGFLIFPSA
human complement C1q (human), sequence (P02746 28-253, chain 2 of 3, further chain): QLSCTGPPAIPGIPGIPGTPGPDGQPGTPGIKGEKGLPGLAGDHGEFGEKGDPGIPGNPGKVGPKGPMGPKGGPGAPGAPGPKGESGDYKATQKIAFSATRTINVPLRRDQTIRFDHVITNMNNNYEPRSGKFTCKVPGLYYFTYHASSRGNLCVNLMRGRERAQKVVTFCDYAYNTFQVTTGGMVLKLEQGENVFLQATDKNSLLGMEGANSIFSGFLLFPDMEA
human complement C1q (human), sequence (P02747 29-245, chain 3 of 3, further chain): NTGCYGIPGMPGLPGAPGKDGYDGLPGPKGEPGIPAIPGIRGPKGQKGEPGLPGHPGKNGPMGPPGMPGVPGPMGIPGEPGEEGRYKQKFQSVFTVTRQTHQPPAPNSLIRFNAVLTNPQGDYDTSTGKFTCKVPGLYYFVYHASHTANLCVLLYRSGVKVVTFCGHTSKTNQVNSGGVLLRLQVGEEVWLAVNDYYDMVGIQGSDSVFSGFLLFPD

With “His-tagged human Fc gamma RI (CD64) (from UniProt P12314 16-292) (receptor)”, the Kd was determined as 1.6 nM in assay [1] and 1.3 nM in assay [2].
For trastuzumab, the Kd in assay [3] turned out to be 209 nM.
In assay [4], trastuzumab (antibody) had an ADCC reporter assay, fold induction, SK-BR-3 target cells, with MMP-2/MMP-9 inhibitor, antibody 10 fM to 100 nM; highest induction, reached at 1 nM (fold induction) of 57.6 and an EC50 of ADCC reporter induction, SK-BR-3 target cells of 0.039 nM.
